Where no end group is shown, it is not given here. Side-chain parts run from the residue outwards. [ ]: non-standard residue; d: D form. thiosuccinimide = thiosuccinimide linkage joining the Cys side chain to 4-arm 5 kDa PEG; pGlu = O=C1CC[C@@H](C(=O)O)N1
Legend:
[1] = molecular target: T1, FLT3xCD3 TCE SEQ ID NO 93; experiment: KinExA equilibrium in solution, KD relative to peptide concentration, TCE 125 pM
T1 construct: Single-chain scFv-scFv-scFc T cell engager; also called FLT3×CD3ε TCE; FLT3_7 A8xCD3-scFc Bispecific HLE molecule

[2] = molecular target: T2, DLL3xCD3 TCE SEQ ID NO 104; experiment: KinExA equilibrium in solution, KD relative to peptide concentration, TCE 250 pM
T2 construct: Single-chain T cell engager; also called DLL3×CD3ε TCE

[3] = molecular target: T3, Steap 1xCD3 TCE SEQ ID NO 373 + 374 + 375; experiment: KinExA equilibrium in solution, KD relative to peptide concentration, TCE 333 pM
T3 construct: also called STEAP1×CD3e heterodimeric TCE; Ab-A1 Xmab2+1
Method: 1. […] 2. […] 3. […] 4. Added 80 mM PDEA to activate the resin for thiol exchange, 10 mins, r.t. […] 5. […] 6. […] 7. […] 8.

[4] = molecular target: T1, FLT3xCD3 TCE SEQ ID NO 93; experiment: KinExA association kinetics, Table 5
Method: (§1) 1. Preparation of NHS-activated sepharose fast-flow beads: [0565] 2. Fast flow sepharose suspension in 100% IPA, washed twice with milliQ H20, mild centrifugation to pool beads in between wash steps. [0566] 3. […] 4. Added 80 mM PDEA to activate the resin for thiol exchange, 10 mins, r.t. [0568] 5. […] 6. Added 30 μg/mL of binding peptide, […] […] (SEQ ID NO: 300), reaction for 1 hr to functionalize resin. [0570] 7. Quench with 10 mM L-Cys for 1 hour. [0571] 8.

[5] = molecular target: T1, FLT3xCD3 TCE SEQ ID NO 93; experiment: SPR solution competition, peptide titrated into fixed TCE, free TCE read on peptide capture surface
Description: (§2) For the binding assessment, Individual binding isotherms were constructed by titrating the respective peptide of interest into a fixed concentration of TCE-containing solution in PBST. At least 4 hrs equilibration time were allotted (r.t.) prior to analysis by SPR. For the analysis, a calibration curve was first constructed of the TCE analyte being assessed. […] The ‘free’ TCE concentration measured was plotted as a function of log peptide concentration and fit using non-linear regression analysis to a 4 parameter logistic function to derive an IC50.

[6] = molecular target: T1, FLT3xCD3 TCE SEQ ID NO 93; experiment: kinetics, Table 5
Method: as §1

[7] = molecular target: T1, FLT3xCD3 TCE SEQ ID NO 93; experiment: KinExA equilibrium in solution, Table 5; single reference peptide QDGNEEMG (original CD3ε epitope)
Method: as §1

[8] = molecular target: CDH3-CD3-MSLN-CD3 TCE (SEQ ID NO 255); experiment: KinExA equilibrium in solution, KD relative to peptide concentration, TCE 250 pM
Chain of CDH3-CD3-MSLN-CD3 TCE (SEQ ID NO 255) (chain, as listed by the source): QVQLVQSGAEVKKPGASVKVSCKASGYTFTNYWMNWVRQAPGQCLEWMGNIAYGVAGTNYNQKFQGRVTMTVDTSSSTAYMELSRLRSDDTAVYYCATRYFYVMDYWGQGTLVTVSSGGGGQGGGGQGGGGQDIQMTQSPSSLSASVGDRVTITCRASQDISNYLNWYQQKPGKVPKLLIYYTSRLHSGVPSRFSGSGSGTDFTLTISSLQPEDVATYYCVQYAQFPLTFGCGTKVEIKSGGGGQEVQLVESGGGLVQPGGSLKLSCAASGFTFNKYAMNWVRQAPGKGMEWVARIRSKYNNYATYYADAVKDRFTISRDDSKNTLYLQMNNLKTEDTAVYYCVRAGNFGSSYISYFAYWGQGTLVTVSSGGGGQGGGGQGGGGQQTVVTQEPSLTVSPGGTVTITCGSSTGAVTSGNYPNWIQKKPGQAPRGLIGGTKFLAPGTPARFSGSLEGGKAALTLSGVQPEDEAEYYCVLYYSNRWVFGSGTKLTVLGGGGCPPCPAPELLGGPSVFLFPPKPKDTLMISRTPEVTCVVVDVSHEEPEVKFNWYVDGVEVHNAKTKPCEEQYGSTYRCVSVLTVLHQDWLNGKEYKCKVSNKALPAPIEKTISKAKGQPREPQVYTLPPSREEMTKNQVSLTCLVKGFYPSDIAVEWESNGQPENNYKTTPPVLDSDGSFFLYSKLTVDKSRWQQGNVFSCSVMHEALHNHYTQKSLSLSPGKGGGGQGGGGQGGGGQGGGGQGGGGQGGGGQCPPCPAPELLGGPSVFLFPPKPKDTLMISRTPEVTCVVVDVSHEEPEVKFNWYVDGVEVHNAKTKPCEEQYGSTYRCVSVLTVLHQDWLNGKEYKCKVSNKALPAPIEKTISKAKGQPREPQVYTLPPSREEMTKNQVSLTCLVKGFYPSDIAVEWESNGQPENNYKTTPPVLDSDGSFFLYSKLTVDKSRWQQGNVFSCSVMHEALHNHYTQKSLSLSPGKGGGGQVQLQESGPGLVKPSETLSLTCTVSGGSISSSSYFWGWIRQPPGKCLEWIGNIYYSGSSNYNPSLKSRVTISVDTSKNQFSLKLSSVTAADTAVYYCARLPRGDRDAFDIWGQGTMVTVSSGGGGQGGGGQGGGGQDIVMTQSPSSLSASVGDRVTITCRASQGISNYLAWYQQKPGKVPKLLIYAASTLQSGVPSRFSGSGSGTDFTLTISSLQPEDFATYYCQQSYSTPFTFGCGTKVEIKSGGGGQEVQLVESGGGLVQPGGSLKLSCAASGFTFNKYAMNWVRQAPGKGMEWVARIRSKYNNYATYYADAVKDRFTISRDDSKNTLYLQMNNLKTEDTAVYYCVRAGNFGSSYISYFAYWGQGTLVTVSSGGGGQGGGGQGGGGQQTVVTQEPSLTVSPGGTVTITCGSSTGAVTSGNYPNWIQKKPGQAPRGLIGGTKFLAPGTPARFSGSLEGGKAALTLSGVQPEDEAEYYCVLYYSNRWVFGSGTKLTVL

scFv region of I2C = molecular target: T4, scFv region of I2C; experiment: co-crystal structure used as input for the modelling
T4 construct: also called VH-VL of I2C

[9] = molecular target: T3, Steap 1xCD3 TCE SEQ ID NO 373 + 374 + …; experiment: SPR, peptide immobilised on CM5 (PDEA), TCE as analyte, kinetic 1:1 fit
[10] = molecular target: T1, FLT3xCD3 TCE SEQ ID NO 93; experiment: as above
[11] = molecular target: T2, DLL3xCD3 TCE SEQ ID NO 104; experiment: as above
[12] = molecular target: T3, Steap 1xCD3 TCE SEQ ID NO 373 + 374 + …; experiment: SPR solution competition, peptide titrated into fixed TCE, free TCE read on peptide capture surface
Description: as §2

[13] = molecular target: T1, FLT3xCD3 TCE SEQ ID NO 93; experiment: KinExA equilibrium in solution, Table 5
Method: as §1

[14] = molecular target: CDH3-CD3-MSLN-CD3 TCE (SEQ ID NO 255); experiment: SPR, peptide immobilised on CM5 (PDEA), TCE as analyte, steady state affinity
[15] = molecular target: CDH3-CD3-MSLN-CD3 TCE (SEQ ID NO 255); experiment: SPR, immobilised peptide, bivalent analyte model, fast component
[16] = molecular target: T1, FLT3xCD3 TCE SEQ ID NO 93; experiment: Table 5, ratio to a reference peptide that the table does not name; set-up: reference not given here
[17] = molecular target: T1, FLT3xCD3 TCE SEQ ID NO 93; experiment: KinExA equilibrium in solution, KD relative to peptide concentration, TCE 250 pM; alias in this row reads 20 k Linear Thioether
[18] = molecular target: T1, FLT3xCD3 TCE SEQ ID NO 93; experiment: KinExA equilibrium in solution, KD relative to peptide concentration, TCE 250 pM

[pGlu]DGNEELKGC([thiosuccinimide-4‑arm PEG 5 kDa])-OH [72103-1]
Kd [1]: 0.0777 nM

[pGlu]DGNEELKGC([thiosuccinimide-4‑arm PEG 5 kDa])-NH2 (also: 4-arm PEG conjugate, number of peptide copies not given here) [79675-1]
Kd [2]: 0.0623 nM

B1: pEDGNEELKGC-NH2 (peptide)
peptide: [pGlu]DGNEELKGC-NH2
SMILES: CC(C)C[C@H](NC(=O)[C@H](CCC(=O)O)NC(=O)[C@H](CCC(=O)O)NC(=O)[C@H](CC(N)=O)NC(=O)CNC(=O)[C@H](CC(=O)O)NC(=O)[C@@H]1CCC(=O)N1)C(=O)N[C@@H](CCCCN)C(=O)NCC(=O)N[C@@H](CS)C(N)=O
notes: Unconjugated peptide (Conjugate column: N/A)
Kd [3]: 1.59 nM

QDGNEEMG
kon [4]: 692000 M⁻¹ s⁻¹ | IC50 [5]: 133 nM | koff [6]: 0.0248 s⁻¹ | Kd [7]: 35.8 nM

[pGlu]DGNEELKGC([thiosuccinimide-4‑arm PEG 20 kDa])-NH2 (also: 4-arm PEG conjugate, number of peptide copies not given here) [79674-1]
Kd [8]: 0.0638 nM | Kd [2]: 0.0372 nM

B2: pE-DGNEELK (peptide)
peptide: [pGlu]DGNEELK
notes: Position 1 is written E for pE; also called CD3ε peptide
binding result (scFv region of I2C): binds

[pGlu]DGNEELKGC (also called ID 14974) [pGlu-DGNEELKGC]
Kd [9]: 2.57 nM | koff [9]: 0.00514 s⁻¹ | kon [9]: 2e+06 M⁻¹ s⁻¹ | Kd [10]: 1.28 nM | koff [10]: 0.0024 s⁻¹ | kon [10]: 1.88e+06 M⁻¹ s⁻¹ | Kd [11]: 1.3 nM | koff [11]: 0.00279 s⁻¹ | kon [11]: 2.14e+06 M⁻¹ s⁻¹ | IC50 [12]: 13.4 nM | IC50 [5]: 2.7 nM | Kd [13]: 0.142 nM | Kd [14]: 13.3 nM | koff [15]: 0.0212 s⁻¹ | kon [15]: 2.42e+06 M⁻¹ s⁻¹ | fold-Kd [16]: 252 fold

[pGlu]DGEEELKGC [pGlu-DGEEELKGC]
Kd [9]: 27.4 nM | koff [9]: 0.0834 s⁻¹ | kon [9]: 3.04e+06 M⁻¹ s⁻¹ | Kd [10]: 7.3 nM | koff [10]: 0.0295 s⁻¹ | kon [10]: 4.04e+06 M⁻¹ s⁻¹ | Kd [11]: 20.5 nM | koff [11]: 0.0542 s⁻¹ | kon [11]: 2.64e+06 M⁻¹ s⁻¹ | IC50 [12]: 28.6 nM | IC50 [5]: 14.7 nM | Kd [14]: 72.5 nM | koff [15]: 0.236 s⁻¹ | kon [15]: 1.29e+06 M⁻¹ s⁻¹

[pGlu]DGNEELKGK-OH (also: Lys 10 side chain linked via thioether (acetamide) to 4-arm 20 kDa PEG, TCE masking molecule) [73135-2]
Kd [1]: 0.0122 nM | Kd [17]: 0.153 nM

[pGlu]DGNEELKGK([acetamide‑thioether-mPEG 20 kDa])-OH (also: Lys 10 side chain linked via thioether (acetamide) to linear 20 kDa mPEG, TCE masking molecule) [73136-2]
Kd [18]: 0.173 nM
